This note sets out measurements from publication PMC8932546 (The Journal of Experimental Medicine, 2022).

This experiment has as its target YU2 gp120 (HIV-1 clade B, isolate YU2, UniProt P35961). The experiment can be described thus: ELISA. On the technique in general: ELISA stands for enzyme-linked immunosorbent assay.

YU2 gp120, sequence (P35961 whole entry, looked up): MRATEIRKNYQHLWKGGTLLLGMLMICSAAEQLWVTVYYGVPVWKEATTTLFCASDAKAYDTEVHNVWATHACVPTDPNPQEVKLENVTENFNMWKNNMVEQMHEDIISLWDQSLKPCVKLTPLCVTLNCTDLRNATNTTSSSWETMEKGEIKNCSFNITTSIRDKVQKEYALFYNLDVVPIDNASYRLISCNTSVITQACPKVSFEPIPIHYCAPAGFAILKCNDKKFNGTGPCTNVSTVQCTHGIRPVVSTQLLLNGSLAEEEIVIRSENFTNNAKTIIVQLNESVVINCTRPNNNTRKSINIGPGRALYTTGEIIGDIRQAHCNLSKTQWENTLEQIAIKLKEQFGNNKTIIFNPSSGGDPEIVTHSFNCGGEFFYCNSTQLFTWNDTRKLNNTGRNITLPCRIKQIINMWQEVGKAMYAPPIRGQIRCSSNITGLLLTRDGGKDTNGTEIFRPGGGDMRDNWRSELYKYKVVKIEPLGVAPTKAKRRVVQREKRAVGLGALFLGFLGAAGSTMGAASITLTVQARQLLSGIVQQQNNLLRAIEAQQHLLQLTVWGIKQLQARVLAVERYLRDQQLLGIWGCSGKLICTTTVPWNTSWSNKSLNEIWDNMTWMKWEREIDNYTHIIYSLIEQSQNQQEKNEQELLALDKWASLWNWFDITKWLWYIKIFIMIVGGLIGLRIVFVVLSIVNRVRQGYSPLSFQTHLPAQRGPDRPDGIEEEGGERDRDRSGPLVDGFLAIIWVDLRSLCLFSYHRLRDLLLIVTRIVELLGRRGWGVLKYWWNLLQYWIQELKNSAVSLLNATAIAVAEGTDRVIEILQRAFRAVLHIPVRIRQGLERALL

B1: BG18 IgG (antibody, V domains shown)
VH: QVQLRESGPGLVKPSETLSLSCTVSQDSRPSDHSWTWVRQSPGKALEWIGDIHYNGATTYNPSLRSRVRIELDQSIPRFSLKMTSMTAADTGMYYCARNAIRIYGVVALGEWFHYGMDVWGQGTAVTVSS
VL: SSELTQPPSVSVSPGQTARITCSGAPLTSRFTYWYRQKPGQAPVLIISRSSQRSSGWSGRFSASWSGTTVTLTIRGVQADDEADYYCQSSDTSDSYKMFGGGTKLTVL
B1: the binding result was “binds”.

B2: 10-1074 IgG (antibody, V domains shown)
VH: QVQLQESGPGLVKPSETLSVTCSVSGDSMNNYYWTWIRQSPGKGLEWIGYISDRESATYNPSLNSRVVISRDTSKNQLSLKLNSVTPADTAVYYCATARRGQRIYGVVSFGEFFYYYSMDVWGKGTTVTVSS
VL: LSVALGETARISCGRQALGSRAVQWYQHRPGQAPILLIYNNQDRPSGIPERFSGTPDINFGTRATLTISGVEAGDEADYYCHMWDSRSGFSWSFGGATRLTVL
For B2, the binding result is “binds”.

B3: 7-269 expressed as recombinant IgG (antibody, V domains shown)
VH: QMQLVESGGGVVQPGRSLRLSCAASRFDFNRFGMHWVRQAPGKGLEWVAYMSYDGGDRYYADSVKGRFTISRDNSKSTLHLQMDSLRPEDTAVYYCAKDDILGDCSTSHCYWGYYYQGMDVWGHGTTVTVSS
VL: EIVMTQSPDTLSVSPGERVTLSCRASQSVGSNLVWYQQKPGQSTRVLIYGASTRAATVPARFSGGGSGTEFTLTISSVQSEDFAVYYCYHYNNWPRGSFGQGTKLEIK
Turning to B3, the binding result is “binds”.
